Publication PMC4114559, “Pigment Dispersing Factor Regulates Ecdysone Biosynthesis via Bombyx Neuropeptide G Protein Coupled Receptor-B2 in the Prothoracic Glands of Bombyx mori” (PLoS ONE, 2014)

How the values were obtained:
[1] = test system: nvd, nm-g, spo, phm, dib and sad; conditions: ref [8]; cited from earlier work
Text: Ecdysone is the key regulator of insect growth and development. Ecdysone is synthesized in the PGs and the biosynthesis is intricately regulated by several neuropeptides. To date, four prothoracicotropic peptides (PTTH, FXPRL-amides, insulin and orcokinins) and three prothoracicostatic peptides (PTSP, Bommo-myosuppressin and Bommo-FMRF-amides) have been identified in Bombyx mori. The participation of four cytochrome P450 (CYP) enzymes (CYP307A1, Spook (Spo); CYP306A1, Phantom (Phm); CYP302A1, Disembodied (Dib); CYP315A1, Shadow (Sad)); an oxygenase-like protein, Neverland (Nvd); and a sh ... || Because PDF increased the intracellular cAMP level in PGs, the involvement of PKA in the PDF signaling pathway was expected. […] In mammals, most of the CYP enzymes involved in steroid hormone biosynthesis are transcriptionally regulated. In PTTH- and dbcAMP-induced ecdysone biosynthesis, ecdysone biosynthesi ...

PGs of B. mori = experiment: Intracellular cAMP level in cultured PGs; type: cell-based, Bombyx mori; conditions: Ca2+-free lepidopteran saline, n = 4–8
Description: (§1) Dissected PGs were rinsed with Grace's insect culture medium (Gibco) and pre-cultured individually in 100 µl medium in 96-well plates (BD Falcon) at 25°C for 30 min. To evaluate the effect of extracellular Ca^2+ on ecdysone biosynthesis, lepidopteran saline and lepidopteran saline using NaCl as a replacement for CaCl2 were used. For the pharmacological analysis, the PG was pre-treated with the inhibitor for 15 min during the pre-culture period. Following this treatment, the PG was cultured in the desired conditions for the desired period (Ecdysone assay: 3 hours; cAMP assay: 30 min; and Protein phosphorylation assay: 15 min). Actinomycin D, H-89 and cycloheximide (CHX) were purchased from Sigma; Rapamycin was purchased from Santa Cruz Biotechnology; and LY294002 was purchased from Merck. H-89 was dissolved in water. The other inhibitors were dissolved in DMSO. […]
HEK293 cells were transfected with an empty mammalian expression vector (pME18S) or the full-length BNGR-B2 ORF inserted into the pME18S vector (BNGR-B2/pME18S) using Lipofectamine LTX with PLUS reagent (Invitrogen) according to the manufacturer's instructions. […] The luminescence was measured with a Wallac ARVO SX 1420 Multilabel Counter (PerkinElmer).
Figure 3 Prothoracicotropic activities of PDF in vitro. […] Statistically significant differences were evaluated by Student's t-test (***P<0.001, **P<0.01, *P<0.05).

ERK = experiment: p-ERK level in cultured PGs (Western blot); type: cell-based, Bombyx mori; conditions: 15 min, immunoblotting
Description: as §1, with “min).” for “min). Actinomycin D, H-89 and cycloheximide (CHX) were purchased from Sigma; Rapamycin was purchased from Santa Cruz Biotechnology; and LY294002 was purchased from Merck. H-89 was dissolved in water. The other inhibitors were dissolved in DMSO.”
(§2) Dissected PGs were pre-cultured in Grace's culture medium for 30 min, then cultured with or without PDF or PTTH for 15 min. The cultured PGs were sonicated in 50 mM Tris-HCl (pH 6.8) with protease inhibitor cocktail (Complete, Roche) and phosphatase inhibitor cocktail (Wako), lysed in 1x SDS sample buffer excluding 2-mercaptoethanol (2ME) and bromophenol blue (BPB), and the protein concentration was measured using the BCA protein assay kit (Pierce). […]
(§3) Figure 4 Signaling pathways involved in PDF-induced ecdysone biosynthesis. […] The transcript levels of nvd, nm-g, spo, phm, dib and sad were quantified with Q-PCR. […] Statistically significant differences were evaluated by Student's t-test (***P<0.001, **P<0.01). […]

4E-BP = experiment: p-4E-BP level in cultured PGs (Western blot); type: cell-based, Bombyx mori; conditions: cultured PGs, 15 min; immunoblotting
Description: as §1, with “min).” for “min). Actinomycin D, H-89 and cycloheximide (CHX) were purchased from Sigma; Rapamycin was purchased from Santa Cruz Biotechnology; and LY294002 was purchased from Merck. H-89 was dissolved in water. The other inhibitors were dissolved in DMSO.”
as §2, §3

B1: PTTH: prothoracicotropic hormone, humoral pathway-mediated tropic hormone (protein, UniProt P17219 116-224, looked up)
Prothoracicotropic hormone: GNIQVENQAIPDPPCTCKYKKEIEDLGENSVPRFIETRNCNKTQQPTCRPPYICKESLYSITILKRRETKSQESLEIPNELKYRWVAESHPVSVACLCTRDYQLRYNNN
modifications: Prothoracicotropic hormone
[1]
  transcript level of ecdysone biosynthetic enzymes (literature): upregulated the transcript level of some ecdysone biosynthetic enzymes
  transcript levels of spo, dib and phm (literature): upregulated by PTTH
PGs of B. mori
  effect of Ca2+ depletion on induced upregulation of intracellular cAMP levels: suppressed PTTH-induced upregulation of intracellular cAMP levels
ERK
  level of p-ERK: upregulated
4E-BP
  level of p-4E-BP: upregulated by both PDF and PTTH
